From article PMC11066007, “CORVET-specific subunit levels determine the balance between HOPS/CORVET endosomal tethering complexes” (Scientific Reports, 2024)

T1: VPS8-FLAG (human, UniProt Q8N3P4 1-1428)
T1 construct: VPS8, human, CORVET-specific subunit; DNA region encoding the full-length protein fused with a FLAG tag; also called CORVET-specific VPS8; source: HEK293, stably transfected (pCMV3), in lysate; not shown: FLAG, C-terminal, kept
T1 sequence (looked up): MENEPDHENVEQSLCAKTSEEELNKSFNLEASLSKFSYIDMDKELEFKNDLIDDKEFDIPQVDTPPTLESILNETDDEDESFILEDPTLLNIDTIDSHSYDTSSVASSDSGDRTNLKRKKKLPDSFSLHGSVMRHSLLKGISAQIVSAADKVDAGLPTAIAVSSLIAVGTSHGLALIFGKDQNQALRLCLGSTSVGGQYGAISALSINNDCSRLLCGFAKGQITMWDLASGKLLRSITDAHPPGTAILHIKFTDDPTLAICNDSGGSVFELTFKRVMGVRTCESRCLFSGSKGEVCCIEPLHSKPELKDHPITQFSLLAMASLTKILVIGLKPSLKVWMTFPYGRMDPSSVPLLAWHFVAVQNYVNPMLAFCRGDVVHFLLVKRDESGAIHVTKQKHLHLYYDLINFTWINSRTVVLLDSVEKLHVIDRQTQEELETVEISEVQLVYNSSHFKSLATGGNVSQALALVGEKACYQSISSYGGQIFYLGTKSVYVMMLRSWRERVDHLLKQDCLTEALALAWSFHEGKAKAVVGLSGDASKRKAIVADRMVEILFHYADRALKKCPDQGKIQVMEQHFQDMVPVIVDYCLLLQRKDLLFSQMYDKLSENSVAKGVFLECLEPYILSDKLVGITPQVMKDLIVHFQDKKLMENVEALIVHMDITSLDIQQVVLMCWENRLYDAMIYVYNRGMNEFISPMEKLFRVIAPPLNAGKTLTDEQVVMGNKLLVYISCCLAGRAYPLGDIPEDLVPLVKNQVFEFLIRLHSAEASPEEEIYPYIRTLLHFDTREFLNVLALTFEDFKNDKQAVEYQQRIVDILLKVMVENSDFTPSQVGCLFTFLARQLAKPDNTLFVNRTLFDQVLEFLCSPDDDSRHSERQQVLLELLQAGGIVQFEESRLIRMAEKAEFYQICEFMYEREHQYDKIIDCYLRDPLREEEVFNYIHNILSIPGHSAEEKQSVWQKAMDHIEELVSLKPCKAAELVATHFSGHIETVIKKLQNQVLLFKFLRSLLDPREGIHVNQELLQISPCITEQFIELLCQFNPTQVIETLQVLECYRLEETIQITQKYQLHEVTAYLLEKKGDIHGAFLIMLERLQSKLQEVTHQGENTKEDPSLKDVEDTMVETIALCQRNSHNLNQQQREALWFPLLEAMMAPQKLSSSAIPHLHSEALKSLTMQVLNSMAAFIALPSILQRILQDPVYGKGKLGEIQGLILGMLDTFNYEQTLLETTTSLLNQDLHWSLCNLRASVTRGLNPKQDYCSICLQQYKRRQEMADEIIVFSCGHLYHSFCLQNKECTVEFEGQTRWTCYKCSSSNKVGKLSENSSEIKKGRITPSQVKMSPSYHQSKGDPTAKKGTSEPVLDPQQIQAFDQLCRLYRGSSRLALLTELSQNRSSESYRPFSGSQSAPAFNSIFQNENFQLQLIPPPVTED

T2: Tgfbrap1-FLAG (human, UniProt Q8WUH2 1-860)
T2 construct: Tgfbrap1, human, CORVET-specific subunit; DNA region encoding the full-length protein fused with a FLAG tag; also called CORVET-specific Tgfbrap1; not shown: FLAG, C-terminal, kept
T2 sequence (looked up): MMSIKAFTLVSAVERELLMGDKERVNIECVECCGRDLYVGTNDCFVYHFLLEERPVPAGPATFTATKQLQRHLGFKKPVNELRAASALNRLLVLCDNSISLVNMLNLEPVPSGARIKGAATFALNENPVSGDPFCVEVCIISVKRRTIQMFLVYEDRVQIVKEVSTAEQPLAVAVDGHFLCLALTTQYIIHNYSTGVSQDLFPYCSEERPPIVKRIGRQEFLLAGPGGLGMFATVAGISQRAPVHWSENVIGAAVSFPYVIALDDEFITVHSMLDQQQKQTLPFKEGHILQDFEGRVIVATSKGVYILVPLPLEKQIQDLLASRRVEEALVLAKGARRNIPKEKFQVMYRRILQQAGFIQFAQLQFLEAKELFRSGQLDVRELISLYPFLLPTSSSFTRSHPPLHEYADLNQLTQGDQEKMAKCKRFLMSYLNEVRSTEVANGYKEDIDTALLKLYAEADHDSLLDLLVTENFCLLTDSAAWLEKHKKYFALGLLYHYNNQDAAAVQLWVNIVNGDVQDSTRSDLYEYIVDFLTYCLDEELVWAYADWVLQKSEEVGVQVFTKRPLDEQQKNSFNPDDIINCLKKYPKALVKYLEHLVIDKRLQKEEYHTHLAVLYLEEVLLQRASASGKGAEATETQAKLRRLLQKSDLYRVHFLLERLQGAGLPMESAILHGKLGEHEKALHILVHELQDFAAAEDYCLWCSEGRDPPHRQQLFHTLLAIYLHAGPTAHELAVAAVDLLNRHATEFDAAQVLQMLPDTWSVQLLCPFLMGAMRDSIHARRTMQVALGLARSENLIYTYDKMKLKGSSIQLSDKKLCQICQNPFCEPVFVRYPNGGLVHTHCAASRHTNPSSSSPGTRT


Key:
VPS8-FLAG = biological target: T1, VPS8-FLAG; assay: co-IP; anti-FLAG beads on total lysates of HEK293 cells stably transfected with a FLAG-tagged specific subunit, with or without transient overexpression of the counterpart subunit (control: pCMV); endogenous VPS11 and VPS18 detected by western blot, densitometry with ImageJ; lysis buffer 50 mM TRIS-HCl pH 7.5, 150 mM NaCl, 1% Triton X-100, 5 mM EDTA; 1.5 h at 4 °C; details: partners not purified
Tgfbrap1-FLAG = biological target: T2, Tgfbrap1-FLAG; assay: as above; details: partners not purified

relative amount bound with Vps41-HA overexpressed (control cells HEK + pCMV as reference) (VPS8-FLAG) | relative amount bound with Vps39-HA overexpressed (control cells HEK + pCMV as reference) (Tgfbrap1-FLAG) | Binder
1.21 relative to control cells | 1.31 relative to control cells | VPS18 (natural protein, human (endogenous in HEK293), UniProt Q9P253 1-973, looked up, VPS18, shared class C core subunit of HOPS and CORVET, detected by anti-VPS18 western blot in anti-FLAG precipitates; also called core subunit VPS18; source: endogenous, HEK293 lysate) MASILDEYENSLSRSAVLQPGCPSVGIPHSGYVNAQLEKEVPIFTKQRIDFTPSERITSLVVSSNQLCMSLGKDTLLRIDLGKANEPNHVELGRKDDAKVHKMFLDHTGSHLLIALSSTEVLYVNRNGQKVRPLARWKGQLVESVGWNKALGTESSTGPILVGTAQGHIFEAELSASEGGLFGPAPDLYFRPLYVLNEEGGPAPVCSLEAERGPDGRSFVIATTRQRLFQFIGRAAEGAEAQGFSGLFAAYTDHPPPFREFPSNLGYSELAFYTPKLRSAPRAFAWMMGDGVLYGALDCGRPDSLLSEERVWEYPEGVGPGASPPLAIVLTQFHFLLLLADRVEAVCTLTGQVVLRDHFLEKFGPLKHMVKDSSTGQLWAYTERAVFRYHVQREARDVWRTYLDMNRFDLAKEYCRERPDCLDTVLAREADFCFRQRRYLESARCYALTQSYFEEIALKFLEARQEEALAEFLQRKLASLKPAERTQATLLTTWLTELYLSRLGALQGDPEALTLYRETKECFRTFLSSPRHKEWLFASRASIHELLASHGDTEHMVYFAVIMQDYERVVAYHCQHEAYEEALAVLARHRDPQLFYKFSPILIRHIPRQLVDAWIEMGSRLDARQLIPALVNYSQGGEVQQVSQAIRYMEFCVNVLGETEQAIHNYLLSLYARGRPDSLLAYLEQAGASPHRVHYDLKYALRLCAEHGHHRACVHVYKVLELYEEAVDLALQVDVDLAKQCADLPEEDEELRKKLWLKIARHVVQEEEDVQTAMACLASCPLLKIEDVLPFFPDFVTIDHFKEAICSSLKAYNHHIQELQREMEEATASAQRIRRDLQELRGRYGTVEPQDKCATCDFPLLNRPFYLFLCGHMFHADCLLQAVRPGLPAYKQARLEELQRKLGAAPPPAKGSARAKEAEGGAATAGPSREQLKADLDELVAAECVYCGELMIRSIDRPFIDPQRYEEEQLSWL
1.52 relative to control cells | 1.05 relative to control cells | VPS11 (natural protein, human (endogenous in HEK293), UniProt Q9H270 1-941, looked up, VPS11, shared class C core subunit of HOPS and CORVET, detected by anti-VPS11 western blot in anti-FLAG precipitates; also called core subunit VPS11; source: endogenous, HEK293 lysate) MAAYLQWRRFVFFDKELVKEPLSNDGAAPGATPASGSAASKFLCLPPGITVCDSGRGSLVFGDMEGQIWFLPRSLQLTGFQAYKLRVTHLYQLKQHNILASVGEDEEGINPLVKIWNLEKRDGGNPLCTRIFPAIPGTEPTVVSCLTVHENLNFMAIGFTDGSVTLNKGDITRDRHSKTQILHKGNYPVTGLAFRQAGKTTHLFVVTTENVQSYIVSGKDYPRVELDTHGCGLRCSALSDPSQDLQFIVAGDECVYLYQPDERGPCFAFEGHKLIAHWFRGYLIIVSRDRKVSPKSEFTSRDSQSSDKQILNIYDLCNKFIAYSTVFEDVVDVLAEWGSLYVLTRDGRVHALQEKDTQTKLEMLFKKNLFEMAINLAKSQHLDSDGLAQIFMQYGDHLYSKGNHDGAVQQYIRTIGKLEPSYVIRKFLDAQRIHNLTAYLQTLHRQSLANADHTTLLLNCYTKLKDSSKLEEFIKKKSESEVHFDVETAIKVLRQAGYYSHALYLAENHAHHEWYLKIQLEDIKNYQEALRYIGKLPFEQAESNMKRYGKILMHHIPEQTTQLLKGLCTDYRPSLEGRSDREAPGCRANSEEFIPIFANNPRELKAFLEHMSEVQPDSPQGIYDTLLELRLQNWAHEKDPQVKEKLHAEAISLLKSGRFCDVFDKALVLCQMHDFQDGVLYLYEQGKLFQQIMHYHMQHEQYRQVISVCERHGEQDPSLWEQALSYFARKEEDCKEYVAAVLKHIENKNLMPPLLVVQTLAHNSTATLSVIRDYLVQKLQKQSQQIAQDELRVRRYREETTRIRQEIQELKASPKIFQKTKCSICNSALELPSVHFLCGHSFHQHCFESYSESDADCPTCLPENRKVMDMIRAQEQKRDLHDQFQHQLKCSNDSFSVIADYFGRGVFNKLTLLTDPPTARLTSSLEAGLQRDLLMHSRRGT
